Measurements published in patent US20080081035.

T1: human recombinant IFN-γ, P01579
T1 chain: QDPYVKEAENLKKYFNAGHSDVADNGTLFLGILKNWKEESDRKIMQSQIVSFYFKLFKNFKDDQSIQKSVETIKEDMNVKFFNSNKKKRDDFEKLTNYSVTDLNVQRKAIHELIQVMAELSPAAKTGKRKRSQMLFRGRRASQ

T2: D-val-leu-lys-pNA
T2 chain: VLK

T3: mouse recombinant IFN-γ, P01580
T3 chain: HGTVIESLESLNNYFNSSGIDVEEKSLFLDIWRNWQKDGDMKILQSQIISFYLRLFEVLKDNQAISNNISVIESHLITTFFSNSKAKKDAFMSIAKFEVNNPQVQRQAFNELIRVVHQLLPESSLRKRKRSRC

T4: mouse recombinant TNF-α, P06804
T4 chain: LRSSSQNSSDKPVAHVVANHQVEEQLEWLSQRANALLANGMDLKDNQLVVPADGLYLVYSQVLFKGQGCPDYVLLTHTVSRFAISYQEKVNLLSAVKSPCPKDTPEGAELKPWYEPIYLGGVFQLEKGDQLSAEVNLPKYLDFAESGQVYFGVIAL

B1: Aspergillus oryzae Deuterolysin (Neutral Protease II) (protein)
chain: TEVTDCKGDAESSLTTALSNAAKLANQAAEAAESGDESKFEEYFKTTDQQTRTTVAERLRAVAKEAGSTSGGSTTYHCNDPYGYCEPNVLAYTLPSKNEIANCDIYYSELPPLAQKCHAQDQATTTLHEFTHAPGVYQPGTEDLGYGYDAATQLSAQDALNNADSYALYANAIELKC
B2: Aspergillus oryzae alkaline protease (protein)
chain: GLTTQKSAPWGLGSISHKGQQSTDYIYDTSAGEGTYAYVVDSGVNVDHEEFEGRASKAYNAAGGQHVDSIGHGTHVSGTIAGKTYGIAKKASILSVKVFQGESSSTSVILDGFNWAANDIVSKKRTSKAAINMSLGGGYSKAFNDAVENAFEQGVLSVVAAGNENSDAGQTSPASAPDAITVAAIQKSNNRASFSNFGKVVDVFAPGQDILSAWIGSSSATNTISGTSMATPHIVGLSLYLAALENLDGPAAVTKRIKELATKDWKDVKGSPNLLAYNGNA
B3: Aspergillus oryzae 26 kDa protease (protein)
chain: HASADAWASSKAISSTSSPSSFKMRFISVSSLLLALAPALNAVPVEVAGSAQGLDVTLSQVGNTRIKAWKNTGSEDVTFVHLNFFKDAAPVQKVSLFRNATEVQFQGIKQRLITEGLSDDALTTLAPGATIEDEFDIASTSDLSEGGTITINSNGLVPITTDNKVTGYIPFTSNELSIDVDAAEAASVTQAVKILERRTKVTSCSGSRLSALQTALRNTVSLARAAATAAQSGSSSRFQEYFKTTSSSTRSTVAARLNAVANEAASTSSGSTTYYCSDVYGYCSSNVLAYTLPSYNIIANCDLYYSYLPALTSTCHAQDQATTTLHEFTHAPGVYSPGTDDLGYGYSAATALSASQALLNADTYALFANAVNLNC

What was measured:
[1] = target: T1, human recombinant IFN-γ, P01579
D-val-leu-lys-pNA = target: T2, D-val-leu-lys-pNA
[2] = target: human recombinant TNF-α, P01375
Sequence of human recombinant TNF-α, P01375 (P01375 77-233): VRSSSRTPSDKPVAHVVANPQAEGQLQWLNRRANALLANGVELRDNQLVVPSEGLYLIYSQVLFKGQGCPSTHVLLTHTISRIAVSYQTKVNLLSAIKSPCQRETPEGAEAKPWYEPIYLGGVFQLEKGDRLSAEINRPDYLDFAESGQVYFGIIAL

[3] = target: Protamine sulfate from salmon
[4] = target: T3, mouse recombinant IFN-γ, P01580
[5] = target: T4, mouse recombinant TNF-α, P06804

Protein | cleavage by Western blot [1] | Specific activity: Val-leu-lys-pNA (mOD/min/µg protein) (mOD/min/µg protein) (D-val-leu-lys-pNA) | proteolysis by Western blotting [2] | Specific activity: Salmon protamine (nmoles Leucine/30 min./µg protein) (nmoles Leucine/30 min./µg protein) [3] | cleavage by Western blotting [4] | cleavage by Western blotting [5]
B1 | cleave human IFN-γ | 2.3 | deuterolysin was without significant effect | 677 |  | 
B2 | the protease did not cleave human IFN-γ | 117 | produced a similar pattern of cleavage | 951 | evidenced the same substrate specificity | evidenced the same substrate specificity
B3 | cleave human IFN-γ | 2.1 |  | 679 |  | 
